Tests used:
[1] = test system: human embryonic stem cells (hESC); test: Endoderm differentiation of hESC with small-molecule inhibitors, flow cytometry of endoderm markers; format: cell-based; conditions: Activin A alone, 3-day treatment
Source text: A variety of cell-type specific markers were used to monitor the differentiation of stem cells into endoderm cells in the flow cytometry, fluorescence imaging, and immunoassay experiments described below. To detect endoderm conversion, hESC-derived cell samples were stained for the expression of SOX17, FoxA2, and CXCR4 proteins. SOX17, FoxA2, and CXCR4 are proteins that are expressed by endoderm cells but not by stem cells. To detect stem cells, cell samples were stained for the expression of OCT4, a protein expressed by stem cells but not by endoderm cells.
Undifferentiated human embryonic stem cells (hES) were maintained at a density of 40,000 cells/cm^2 on qualified matrigel (BD, #354277) in TesR™2 medium ([…]™ Technologies #05860). Cultures were manually passaged twice a week. To prepare for endoderm differentiation, hESC cells were passaged into TesR™2 medium overnight. The following day, the TesR™2 medium was replaced with basal medium (DMEM/F12+Glutamax (Invitrogen, #10565) supplemented with B27 (Invitrogen, #17504-044)). No human embryos were destroyed in the process of obtaining stem cells for these methods. Furthermore, the plurality of stem cells is not obtained by the prior destruction of human embryos.
Unless otherwise noted, basal medium was supplemented with […] human Activin A (Peprotech, #120-14). When indicated, basal medium was also supplemented with an effective amount of, e.g., a growth factor such as […] human Wnt3a (R&D, #5036-WN-010), an isoform-specific P13K inhibitor or an mTOR inhibitor. […]
To prepare the cells for flow cytometry, hESC-derived cells grown under endoderm differentiation conditions were dissociated using Accutase (Innovative Cell technologies, #AT-104). Briefly, the cells were washed once in PBS, incubated with Accutase for 10 minutes at room temperature, pelleted, and washed in cold PBS. The Accutase-dissociated hESC-derived cell samples were stained with anti-CXC4 antibody, anti-SOX17 antibody, or anti-FoxA2 antibody. Additional cell samples were stained with isotype control antibodies (e.g., IgG1 or IgG2).
The cells that were to be stained with anti-CXCR4 antibody were washed once with cold DPBS and then directly stained with mouse anti-human CD184 (CXCR4)-IgG2-PE (BD, #555974) for one hour at 4° C. The cells that were to be stained with anti-SOX17 antibody or anti-FoxA2 antibody were first fixed for 25 minutes at 4° C. in fixation buffer (BD, #554655) and permeabilized for 30 minutes on ice in Perm Buffer III (BD, #554656). Anti-SOX17 staining was performed using a mouse anti-SOX17 IgG1-PE antibody (BD, #561591) at room temperature for 30 minutes. Anti-FoxA2 staining was performed using a mouse anti-human FoxA2 IgG1 (BD, #561589) under the same conditions. A control sample of cells were fixed as described above and stained with either an anti-IgG1-PE antibody (BD, #554680) at room temperature for 30 minutes or an anti-IgG2-PE antibody (BD, #55574) for one hour at 4° C.
The antibody-stained hESC-derived cells were then analyzed via flow cytometry using a BD LSRFortessa™ cell analyzer. […] Approximately 1×10^6 cells were analyzed per sample.

[2] = test system: hESC-derived endoderm cells; test: Hepatocyte differentiation of endoderm cells, flow cytometry; format: cell-based, human; conditions: hepatoblast medium in the absence of FGF4 and BMP2
Experimental: After 10-day treatment, the endoderm-derived cells were harvested using TrypLE. Briefly, the cells were washed once in PBS, incubated with TrypLE for 5 minutes at 37° C. The incubated cells were then diluted 10-fold with PBS, pelleted, and prepared for further analysis.
Prior to flow cytometry analysis, the Accutase-dissociated endoderm-derived cell samples were stained with an anti-AFP primary antibody followed by a secondary antibody.
The harvested endoderm-derived cells were washed with cold DPBS. […] The cells were washed three more times in permeabilization/wash buffer prior to flow cytometry analysis.
HepG2 cells, which were derived from a well-differentiated hepatocellular carcinoma, were also stained as a positive control. The cells were analyzed via flow cytometry as described above. Approximately 1.5×10^6 cells were analyzed per sample.
Endoderm cells were treated with different combinations of growth factors and tested for their capability to differentiate into hepatocytes. hESC were differentiated into endoderm cells as described above. […] After 10 days of treatment, the endoderm-derived cells were prepared for flow cytometry and imaging analysis as described above.
An additional control sample was prepared in which endoderm cells obtained by culture with Activin A alone were cultured in hepatoblast medium in the absence of any additional growth factors. […]

B1: Activin A: human Activin A (Peprotech), member of the TGF beta family (protein, UniProt P08476 311-426, looked up)
Inhibin beta A chain: GLECDGKVNICCKKQFFVSFKDIGWNDWIIAPSGYHANYCEGECPSHIAGTSGSSLSFHSTVINHYRMRGHSPFANLKSCCVPTKLRPMSMLYYDDGQNIIKKDIQNMIVEECGCS
modifications: Inhibin beta A chain homodimer
[1]
  % of hESC-derived cells expressing SOX17: 20%
[2]
  % of endoderm-derived cells expressing AFP: 7.65%
